Values of other authors in patent US20020188108.

Molecular target: T1, IF3-His6 (translation initiation factor 3) (Escherichia coli) (UniProt P0A707)
T1 sequence: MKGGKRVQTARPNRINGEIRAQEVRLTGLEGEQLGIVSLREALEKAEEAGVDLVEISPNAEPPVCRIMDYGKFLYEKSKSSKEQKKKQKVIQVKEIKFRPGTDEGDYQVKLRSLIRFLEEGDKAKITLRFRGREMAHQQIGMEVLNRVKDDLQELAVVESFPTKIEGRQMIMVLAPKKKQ
Conditions: CITED Tapprich et al. 1989

For 16S rRNA G791A in 30S subunit, the binding signal (fold reduction) is listed as 10.
